Assays:
[1] = target: 인간 CD38 (human CD38, full length, on cells) (human) (UniProt P28907); assay: cell-based or functional assay
[2] = target: his 태그가 부착된 재조합 인간 CD38 (recombinant human CD38 extracellular domain, His-tagged) (human) (UniProt P28907); assay: ForteBio (BLI), 1:1 fit

CD38 시클라제 활성 억제 [1] [%]	Kd [2] [nM]	Substance
70		다라투무맙 (daratumumab) (antibody)
	9	IB4 (antibody)

Source: patent KR20200019669A
